Targets include PWI K734A+R735A+K736A (Homo sapiens, UniProt P49756 734-843, K734A;R735A;K736A); PWI R769A+R770A (Homo sapiens, UniProt P49756 734-843, R769A;R770A); PWI K777A+K778A (Homo sapiens, UniProt P49756 734-843, K777A;K778A); PWI H737A+K739A (Homo sapiens, UniProt P49756 734-843, H737A;K739A); PWI K837A+K838A (Homo sapiens, UniProt P49756 734-843, K837A;K838A); PWI K825A+R828A (Homo sapiens, UniProt P49756 734-843, K825A;R828A); PWI ΔHb (Homo sapiens, UniProt P49756 746-843, del734-745); PWI K744A (Homo sapiens, UniProt P49756 734-843, K744A).

What all share (assay): fluorescence polarization
For orientation: Fluorescence polarisation rises when a labelled molecule tumbles more slowly, as on binding a larger partner.

The target of series [1] is RBM25 PWI domain + flanking basic region WT (Homo sapiens, UniProt P49756 734-843).
Sequence of RBM25 PWI domain + flanking basic region WT (P49756 734-843): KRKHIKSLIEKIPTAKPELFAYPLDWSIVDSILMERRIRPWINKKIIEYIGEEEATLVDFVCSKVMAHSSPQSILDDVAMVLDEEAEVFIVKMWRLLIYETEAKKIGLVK

Sequence of PWI K825A+R828A (P49756 734-843 K825A/R828A): as the sequence (P49756 734-843) above, with K92A, R95A counted along it
Sequence of PWI K837A+K838A (P49756 734-843 K837A/K838A): as the sequence (P49756 734-843) above, with K104A, K105A counted along it
Sequence of PWI K734A+R735A+K736A (P49756 734-843 K734A/R735A/K736A): as the sequence (P49756 734-843) above, with K1A, R2A, K3A counted along it
Sequence of PWI ΔHb (P49756 746-843, stated change not applied): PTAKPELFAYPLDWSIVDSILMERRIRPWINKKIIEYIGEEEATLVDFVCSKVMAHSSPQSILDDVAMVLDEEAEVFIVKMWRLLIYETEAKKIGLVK
Sequence of PWI H737A+K739A (P49756 734-843 H737A/K739A): as the sequence (P49756 734-843) above, with H4A, K6A counted along it
Sequence of PWI K777A+K778A (P49756 734-843 K777A/K778A): as the sequence (P49756 734-843) above, with K44A, K45A counted along it
Sequence of PWI R769A+R770A (P49756 734-843 R769A/R770A): as the sequence (P49756 734-843) above, with R36A, R37A counted along it
Sequence of PWI K744A (P49756 734-843 K744A): as the sequence (P49756 734-843) above, with K11A counted along it

For the molecule CCTTACAGCAAA (ssDNA) [ssDNA], the Kd (usually the free concentration of one partner at which half of the binding sites on the other are occupied at equilibrium, for simple one-to-one binding) in series [1] was ~4.4 µM.

B1: dsRNA (dsRNA)
RNA 1: AUCGGGCA
RNA 2: UGCCCGAU
For the molecule B1, in series [1], the Kd is ~8.2 µM.

B2: dsDNA (dsDNA)
DNA 1: CCTTACAGCAAA
DNA 2: TTTGCTGTAAGG
With B2, the dissociation constant (Kd) with PWI K734A+R735A+K736A is ~194 µM; in series [1], ~6.7 µM; with PWI R769A+R770A, ~46 µM; in the series with PWI K777A+K778A, ~160 µM; with PWI H737A+K739A, ~57 µM; with PWI K837A+K838A it was ~40.4 µM. For the same molecule, the Kd with PWI K825A+R828A is ~106 µM; in the series with PWI K744A, ~23.6 µM. Also, the binding result in the series with PWI ΔHb is given as “no binding”.

As for AUCGGGCA (ssRNA) [ssRNA], the dissociation constant Kd was 183 ± 44.7 µM in the series with PWI K734A+R735A+K736A; 11.3 ± 1 µM in series [1]; 32.1 ± 1.4 µM in the series with PWI R769A+R770A; 156 ± 29.4 µM in the series with PWI K777A+K778A; 61.6 ± 9.3 µM in the series with PWI H737A+K739A; 15.7 ± 2.1 µM in the series with PWI K837A+K838A. For the same molecule, the equilibrium dissociation constant (Kd) in the series with PWI K825A+R828A came to 106 ± 17.3 µM; with PWI K744A it was 19.9 ± 4.4 µM. The binding result in the series with PWI ΔHb is “no binding”.
